# In US20060263802A1 (CRUCELL HOLLAND B V, published 2006):
# B1: human monoclonal antibody CRJA (antibody, V domains shown)
# VH: EVQLLESGGGLVQPGGSLRLSCAASGFTFSNYAMSWVRQAPGKGLEWVSAISASGHSTYLADSVKGRFTISRDNSKNTLYLQMNSLRAEDTAVYYCAKDREVTMIVVLNGGFDYWGQGTRVTVSS
# VL: EIVLTQSPATLSLSPGERATLACRASQTASRYLAWYQQKPGQAPRLLIYDTSNRATGIPARFSGSGSGTDFTLSISSLEPEDFAVYYCQQRFNWPWTFGQGTKVEFK
# Experiments:
# Assay in all cases: PEPSCAN ELISA, looped peptide, antibody 10 µg/ml
# [1] = target: looped/cyclic peptide … (rabies virus strain ERA)
# [2] = target: looped/cyclic peptide … (rabies virus strain ERA); remark: listed apart in the source
# [3] = target: looped/cyclic peptide … (rabies virus strain ERA); remark: listed apart in the source
# [4] = target: looped/cyclic peptide … (rabies virus strain ERA); remark: listed apart in the source
# [5] = target: looped/cyclic peptide … (rabies virus strain ERA); remark: listed apart in the source
# [6] = target: looped/cyclic peptide … (rabies virus strain ERA); remark: listed apart in the source
# [7] = target: looped/cyclic peptide … (rabies virus strain ERA); remark: listed apart in the source
# [8] = target: looped/cyclic peptide … (rabies virus strain ERA); remark: listed apart in the source
# [9] = target: looped/cyclic peptide … (rabies virus strain ERA); remark: listed apart in the source
# [10] = target: looped/cyclic peptide … (rabies virus strain ERA); remark: listed apart in the source
# [11] = target: looped/cyclic peptide … (rabies virus strain ERA); remark: listed apart in the source
# [12] = target: looped/cyclic peptide … (rabies virus strain ERA); remark: listed apart in the source
# [13] = target: looped/cyclic peptide … (rabies virus strain ERA); remark: listed apart in the source
# [14] = target: looped/cyclic peptide … (rabies virus strain ERA); remark: listed apart in the source
# [15] = target: looped/cyclic peptide … (rabies virus strain ERA); remark: listed apart in the source
# [16] = target: looped/cyclic peptide … (rabies virus strain ERA); remark: listed apart in the source
# [17] = target: looped/cyclic peptide … (rabies virus strain ERA); remark: listed apart in the source
# [18] = target: looped/cyclic peptide … (rabies virus strain ERA); remark: listed apart in the source
# [19] = target: looped/cyclic peptide … (rabies virus strain ERA); remark: listed apart in the source
# [20] = target: looped/cyclic peptide … (rabies virus strain ERA); remark: listed apart in the source
# [21] = target: looped/cyclic peptide … (rabies virus strain ERA); remark: listed apart in the source
# [22] = target: looped/cyclic peptide … (rabies virus strain ERA); remark: listed apart in the source
# [23] = target: looped/cyclic peptide … (rabies virus strain ERA); remark: listed apart in the source
# [24] = target: looped/cyclic peptide … (rabies virus strain ERA); remark: listed apart in the source
# [25] = target: looped/cyclic peptide … (rabies virus strain ERA); remark: listed apart in the source
# [26] = target: looped/cyclic peptide … (rabies virus strain ERA); remark: listed apart in the source
# [27] = target: looped/cyclic peptide … (rabies virus strain ERA); remark: listed apart in the source
# [28] = target: looped/cyclic peptide … (rabies virus strain ERA); remark: listed apart in the source
# [29] = target: looped/cyclic peptide … (rabies virus strain ERA); remark: listed apart in the source
# [30] = target: looped/cyclic peptide … (rabies virus strain ERA); remark: listed apart in the source
# [31] = target: looped/cyclic peptide … (rabies virus strain ERA); remark: listed apart in the source
# [32] = target: looped/cyclic peptide … (rabies virus strain ERA); remark: listed apart in the source
# [33] = target: looped/cyclic peptide … (rabies virus strain ERA); remark: listed apart in the source
# [34] = target: looped/cyclic peptide … (rabies virus strain ERA); remark: listed apart in the source
# [35] = target: looped/cyclic peptide … (rabies virus strain ERA); remark: listed apart in the source
# [36] = target: looped/cyclic peptide … (rabies virus strain ERA); remark: listed apart in the source
# [37] = target: looped/cyclic peptide … (rabies virus strain ERA); remark: listed apart in the source
# [38] = target: looped/cyclic peptide … (rabies virus strain ERA); remark: listed apart in the source
# [39] = target: looped/cyclic peptide … (rabies virus strain ERA); remark: listed apart in the source
# [40] = target: looped/cyclic peptide … (rabies virus strain ERA); remark: listed apart in the source
# [41] = target: looped/cyclic peptide … (rabies virus strain ERA); remark: listed apart in the source
# [42] = target: looped/cyclic peptide … (rabies virus strain ERA); remark: listed apart in the source
# [43] = target: looped/cyclic peptide … (rabies virus strain ERA); remark: listed apart in the source
# [44] = target: looped/cyclic peptide … (rabies virus strain ERA); remark: listed apart in the source
# [45] = target: looped/cyclic peptide … (rabies virus strain ERA); remark: listed apart in the source
# [46] = target: looped/cyclic peptide … (rabies virus strain ERA); remark: listed apart in the source
# [47] = target: looped/cyclic peptide … (rabies virus strain ERA); remark: listed apart in the source
# [48] = target: looped/cyclic peptide … (rabies virus strain ERA); remark: listed apart in the source
# [49] = target: looped/cyclic peptide … (rabies virus strain ERA); remark: listed apart in the source
# [50] = target: looped/cyclic peptide … (rabies virus strain ERA); remark: listed apart in the source
# [51] = target: looped/cyclic peptide … (rabies virus strain ERA); remark: listed apart in the source
# [52] = target: looped/cyclic peptide … (rabies virus strain ERA); remark: listed apart in the source
# [53] = target: looped/cyclic peptide … (rabies virus strain ERA); remark: listed apart in the source
# [54] = target: looped/cyclic peptide … (rabies virus strain ERA); remark: listed apart in the source
# [55] = target: looped/cyclic peptide … (rabies virus strain ERA); remark: listed apart in the source
# [56] = target: looped/cyclic peptide … (rabies virus strain ERA); remark: listed apart in the source
# [57] = target: looped/cyclic peptide … (rabies virus strain ERA); remark: listed apart in the source
# [58] = target: looped/cyclic peptide … (rabies virus strain ERA); remark: listed apart in the source
# [59] = target: looped/cyclic peptide … (rabies virus strain ERA); remark: listed apart in the source
# [60] = target: looped/cyclic peptide … (rabies virus strain ERA); remark: listed apart in the source
binder,measurement,setting,value
B1,OD value,[1],41 OD
same,OD value,[2],45 OD
same,OD value,[3],72 OD
same,OD value,[4],98 OD
same,OD value,[5],71 OD
same,OD value,[6],96 OD
same,OD value,[7],38 OD
same,OD value,[8],136 OD
same,OD value,[9],96 OD
same,OD value,[10],92 OD
same,OD value,[11],137 OD
same,OD value,[12],62 OD
same,OD value,[13],71 OD
same,OD value,[14],83 OD
same,OD value,[15],62 OD
same,OD value,[16],65 OD
same,OD value,[17],83 OD
same,OD value,[18],100 OD
same,OD value,[19],117 OD
same,OD value,[20],78 OD
same,OD value,[21],105 OD
same,OD value,[22],43 OD
same,OD value,[23],54 OD
same,OD value,[24],89 OD
same,OD value,[25],88 OD
same,OD value,[26],83 OD
same,OD value,[27],83 OD
same,OD value,[28],86 OD
same,OD value,[29],38 OD
same,OD value,[30],38 OD
same,OD value,[31],45 OD
same,OD value,[32],78 OD
same,OD value,[33],98 OD
same,OD value,[34],78 OD
same,OD value,[35],84 OD
same,OD value,[36],51 OD
same,OD value,[37],88 OD
same,OD value,[38],71 OD
same,OD value,[39],112 OD
same,OD value,[40],45 OD
same,OD value,[41],87 OD
same,OD value,[42],93 OD
same,OD value,[43],105 OD
same,OD value,[44],72 OD
same,OD value,[45],89 OD
same,OD value,[46],72 OD
same,OD value,[47],90 OD
same,OD value,[48],41 OD
same,OD value,[49],92 OD
same,OD value,[50],151 OD
same,OD value,[51],82 OD
same,OD value,[52],100 OD
same,OD value,[53],96 OD
same,OD value,[54],93 OD
same,OD value,[55],79 OD
same,OD value,[56],86 OD
same,OD value,[57],46 OD
same,OD value,[58],93 OD
same,OD value,[59],83 OD
same,OD value,[60],78 OD
